This is an account of results in patent US20240376199A1 (University of Texas, published 2024).

B1: TREM2-Ab2Hu (antibody, V domains shown)
VH: QVQLVQSGAEVKKPGASVKVSCKASGYTFTSYYMHWVRQAPGQGLEWMGIINPSGGSTSYAQKFQGRVTMTRDTSTSTVYMELSSLRSEDTAVYYCARDRPGRSSIAAAGPKRGHYGMDVWGQGTTVSVSS
VL: QSALNQPASVSGSPGQSITISCTGTSSDVGGYNYVSWYQQHPGKAPKLMIYEVSNRPSGVSNRFSGSKSGNTASLTISGLQAEDEADYYCSSYTSSRTLVFGTGTKVTVL
notes: also called H2-Hu / 2L-Hu
B2: TREM2-Ab19Hu (antibody, V domains shown)
VH: EVQLVQSGAEVKKPGASVKVSCKASGYTFTSYYMHWVRQAPGQGLEWMGIINPSGGSTSYAQKFQGRVTMTRDTSTSTVYMELSSLRSEDTAVYYCARSLSSGSYYDYWGQGTLVSVSS
VL: B1 VL with N5T, E52D, S54T, N55K, I77V, T103G
notes: also called H19-Hu / 19L-Hu
B3: TREM2-Ab22Rb (antibody, V domains shown)
VH: QSVEESGGDLVKPGASLTLTCTASGFSFSSTAMCWVRQAPGKGLEWIACIGFSSGIINYANSVKGRFTISKTSSTTVSLQMNSLTAADTATYFCARFFNLWGPGTLVTVSS
VL: DPVLTQTPSSVSAAVGGTVTISCQATETVYSNDRLAWYQQKPGQPPKLLIYRISTLESGVPSRFKGSGSGTQFTLTISGVQCDDAATYYCAGGYNGNIWAFGGGTEVVVK
notes: Rabbit-derived mAb; also called 22 H / 22 k
B4: TREM2-Ab26Rb (antibody, V domains shown)
VH: QKQLVESGGDLVKPEGSLTLTCTASGFSFSYSYYMCWVRQAPGKGLEWIGCIYGGGSGSSYYASWAKGRFTISKTSSTTVTLQVTSLTAADTATYFCARIDDAYATVMWGPGTLVTVSS
VL: DVVMTQTASPVSGAVGGTVTIKCQASEDIYSSLAWYQQKPGQPPKLLIYQASKLASGVPPRFSGSGSGTEYTLTISDLECADAATYYCQNYYYVRGADYWAFGGGTEVVVE
notes: Rabbit-derived mAb; also called 26 H / 26 k
B5: TREM2-Ab1Rb (antibody, V domains shown)
VH: QEQLVESGGGLVTPGGTLTLTCTASGIDFSNYGISWVRQAPGKGLEWIGYIYPDYGATAYANWVNGRFTVSLDNAQNTVTLNMTSLTAADTATYFCARSTGWGDFNLWGPGTLVTVSS
VL: DVVMTQTPASVSEPVGGTVTIKCQASQNIGSNLAWYQQKPGQPPNLLIYGASNLASGVSSRFKGSSSGTEYTLTISDLECADAATYYCQCTYYGSSYVAFGGGTEVVVK
notes: Rabbit-derived mAb; also called 1 H / 1 k
B6: TREM2-Ab2Rb (antibody, V domains shown)
VH: QKQLVESGGGLVKPEGSLTLTCKVSGIDFSSAGISWVRQAPGKGLEWIAYIYPDYGVTDYANWVNGRFTISLDNAQNTVFLQMTSLTAADTATYFCARMDAADAGYGYDLWGPGTLVTVSS
VL: AAVLTQTTSPVSGAVGGTVTIKCQASQSVGSNLAWYQQKPGQPPKILIGGASKLASGVPSRFSGSGSGTEFTLTISDLECADAGTYYCHSYYYSSTSADAFGGGTKVVVE
notes: Rabbit-derived mAb; also called 2 H / 2 k
B7: TREM2-Ab6Rb (antibody, V domains shown)
VH: B6 VH
VL: B6 VL with A1D, A2V, L4M, S31T, L73F, K106E, E110K
notes: also called 2 H / 6 k
B8: TREM2-Ab12Rb (antibody, V domains shown)
VH: QSVEESGGDLVKSGASLTLTCTASGFSFSSYYFMCWVRQAPGRGLEWIACIYAGTSANTYYASWAKGRFTISKTSSTTVTLQMTSLTAADTATYFCARDRGYYTYADAGYAYATDGFDLWGPGTLVTVSS
VL: ALVMTQTPASVEAAVGGTVTIKCQASQNIYSNLAWYQQKPGQPPKRLIYKASTLPSGVPSRFKGSGSGTQFTLTISDLECADAATYYCQSNYYSSSSNYGPNAFGGGTEVVVK
notes: Rabbit-derived mAb; also called 12 H / 12 k
B9: TREM2-Ab16Rb (antibody, V domains shown)
VH: QEQLVESGGGLVKPGASLTLTCTASGFSFSDTAYICWVRQAPGKGLEWVACIAFGDGRTYLASWAKGRFTISKTSSTTVTLQMTSLPAADTATYFCASNFTLWGPGTLVTVSS
VL: DVVMTQTPASVSEPVGGTVTINCQAIQSIGNNFVWYQQKPGQPPKLLIYKASIRASGVSSRFRGSGSGTDFTLTISDLECDDTGTYYCQCTYASSATFGGGTEVVVK
notes: Rabbit-derived mAb; also called 16 H / 16 k
B10: TREM2-Ab8Hu (antibody, V domains shown)
VH: QVQLVESGGGLIQPGGSLRLSCAVSGVSVSNNYMNWVRQAPGKGLEWVSSMYSDATTHYADSVKGRFTISRDNSKNNMYLQMDSLRAEDTAVYYCARESVAGTLDFWGQGTTVSVSS
VL: SYELTQPPSASGTPGQRVTISCSGSSSNIGTYPVNWYQKLPGTAPKLLIYTNNQRPSGVPDRFSGSKSGTSASLTISGLQSEDEADYYCATWGDSLNAVVFGGGTKVTVL
notes: also called H8-Hu / 8L-Hu
B11: Ab18 IgG (antibody, V domains shown)
VH: QVQLQESGPGLVKPSETLSLTCTVSGGSISSYYWSWIRQPPGKGLEWIGSIYYSGSTNYNPSLKSRVTISVDTSKNQFSLKLSSVTAADTAVYYCARDGGGEYPSGTPFDIWGQGTMVTVSS
VL: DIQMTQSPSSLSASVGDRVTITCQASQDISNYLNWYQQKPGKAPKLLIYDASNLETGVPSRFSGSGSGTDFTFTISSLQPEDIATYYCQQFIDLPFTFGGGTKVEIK
B12: biotinylated TREM2 protein (Sino Biological) (receptor)
chain: LNTTVLQGMAGQSLRVSCTYDALKHWGRRKAWCRQLGEEGPCQRVVSTHGVWLLAFLKKRNGSTVIADDTLAGTVTITLKNLQAGDAGLYQCQSLRGREAEVLQKVLVEVLEDPLDDQDAGDLWVPEESSSFEGAQVEHSTSRNQETSFPPTS
modifications: Biotinylated; sites not stated.
notes: not shown: biotin label

Numbering of substitutions follows the chain as printed.

T1 sequence (Q62351 89-763): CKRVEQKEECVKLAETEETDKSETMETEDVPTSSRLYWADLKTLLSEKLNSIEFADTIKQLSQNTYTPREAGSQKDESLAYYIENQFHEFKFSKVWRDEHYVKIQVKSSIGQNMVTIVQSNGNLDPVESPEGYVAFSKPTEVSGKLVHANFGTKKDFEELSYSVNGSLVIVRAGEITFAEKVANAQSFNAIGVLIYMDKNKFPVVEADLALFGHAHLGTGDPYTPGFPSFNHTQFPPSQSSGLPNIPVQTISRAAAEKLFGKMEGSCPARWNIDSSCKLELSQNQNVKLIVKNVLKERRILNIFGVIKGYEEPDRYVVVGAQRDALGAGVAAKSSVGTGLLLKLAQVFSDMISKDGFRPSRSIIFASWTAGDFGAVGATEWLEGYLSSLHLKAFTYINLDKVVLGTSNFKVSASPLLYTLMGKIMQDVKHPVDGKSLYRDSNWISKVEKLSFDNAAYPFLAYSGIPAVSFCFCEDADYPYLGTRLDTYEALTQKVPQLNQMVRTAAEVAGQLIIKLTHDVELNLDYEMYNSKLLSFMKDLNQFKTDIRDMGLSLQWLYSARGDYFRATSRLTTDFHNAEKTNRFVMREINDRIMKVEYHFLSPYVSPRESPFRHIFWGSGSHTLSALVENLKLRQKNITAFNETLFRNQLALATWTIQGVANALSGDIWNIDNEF

One assay concerns the target TREM2 (antigen of the BLI kinetics and binning of Tables 2 and 3). In words: BLI, Octet Red96. In general terms: In BLI a coated tip is dipped into the sample, and binding shifts an interference pattern.
Turning to B1, the affinity, expressed as Kd, was 18.1 nM; the koff turned out to be 0.00647 s⁻¹; the kon was 359000 M⁻¹ s⁻¹.
The molecule B2 came in with a dissociation constant (Kd) of 18.9 nM, a koff of 0.00986 s⁻¹ and a kon of 522000 M⁻¹ s⁻¹.
Turning to B3, binding was put at a Kd of 3.1 nM, the koff stood at 0.00107 s⁻¹ and the kon stood at 346000 M⁻¹ s⁻¹.
Molecule B4 yielded a Kd of 27.5 nM, a koff of 0.00487 s⁻¹ and a kon of 177000 M⁻¹ s⁻¹.
For B5 the same measures were 1.42 nM, 0.000727 s⁻¹ and 513000 M⁻¹ s⁻¹.
Turning to B6, the Kd was determined as 1.2 nM, the koff came to 0.000451 s⁻¹ and the kon is 376000 M⁻¹ s⁻¹.
Taken in the same sequence, the figures for B7 were 1.97 nM, 0.000909 s⁻¹ and 461000 M⁻¹ s⁻¹.
Taken in the same sequence, the figures for B8 were 71.8 nM, 0.00685 s⁻¹ and 95500 M⁻¹ s⁻¹.
For B9, the Kd came out at 0.32 nM, the koff was 7.84e-05 s⁻¹ and the kon came to 245000 M⁻¹ s⁻¹.
Turning to B10, the Kd was 8.18 nM, the koff is 0.00499 s⁻¹ and the kon stood at 609000 M⁻¹ s⁻¹.

Another assay has as its target TREM2-DAP12 reporter construct on 2B4 NFAT-EGFP reporter cells (mouse; human, UniProt Q99NH8 19-171; O43914 28-113). In words: cell-based or functional assay.
In the case of B11, the “EC50 of activation of TREM2-DAP12 NFAT-EGFP reporter cells” value is 79.4 nM.

A further assay addresses T1, muTfR-His (Sino Biological) (mouse, UniProt Q62351 89-763).
T1 construct: extracellular domain; Bought protein; also called TfR ECD; mouse transferrin receptor; not shown: His tag
In words: sandwich BLI, biotinylated TREM2 on streptavidin sensor, antibody step omitted. How it is done: Streptavidin sensors (Fortebio) were used to capture biotinylated TREM2 proteins (Sino Biological). During all incubation steps, samples were kept at room temperature with 1000 rpm shaking. In the TREM2 loading step, 100 nM biotinylated TREM2 proteins were incubated with the sensors for the designated time. In the bispecific antibody interaction steps, 200 nM antibodies were used. In the muTfR incubation step, 100 nM muTfR-His (Sino Biological) were used. Between incubations, the sensors were dipped into blank kinetic buffers to allow the free dissociation of proteins.
Consider B12, for which the binding result is listed as “no binding (tested: 100 nM)”.

Broadly, the Kd is the equilibrium constant for the complex coming apart. Low readings indicate higher affinity, high ones lower affinity. As usually defined, the koff is a measure of how fast the partners let go of each other. The low end stands for a long-lived complex, the high end for a short-lived complex. One may read the kon as the second-order rate constant of association. Low values mean slower complex formation, high ones faster complex formation.
